T1: His-tagged soluble human ADAM9 (shADAM9-His) (human, UniProt Q13443 206-697)
T1 construct: Contains an extracellular portion of human ADAM9; also called huADAM9-His; His peptide-tagged soluble huADAM9
T1 sequence: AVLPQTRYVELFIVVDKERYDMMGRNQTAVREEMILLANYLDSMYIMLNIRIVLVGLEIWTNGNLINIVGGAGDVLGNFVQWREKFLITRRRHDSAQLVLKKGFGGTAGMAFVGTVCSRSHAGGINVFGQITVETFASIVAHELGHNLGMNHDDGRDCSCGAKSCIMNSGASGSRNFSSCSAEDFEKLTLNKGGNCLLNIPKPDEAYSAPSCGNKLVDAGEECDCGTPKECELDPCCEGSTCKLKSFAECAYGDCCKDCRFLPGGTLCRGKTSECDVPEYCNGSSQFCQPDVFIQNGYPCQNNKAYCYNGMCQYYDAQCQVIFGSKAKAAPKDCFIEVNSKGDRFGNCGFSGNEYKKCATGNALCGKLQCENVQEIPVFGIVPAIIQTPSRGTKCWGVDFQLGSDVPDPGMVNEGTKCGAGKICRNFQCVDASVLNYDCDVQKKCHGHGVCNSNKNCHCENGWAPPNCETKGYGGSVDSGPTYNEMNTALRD

T2: human ADAM9 (huADAM9) on cells (human, UniProt Q13443 206-819)
T2 construct: The pro-domain is said to be cleaved (Arg-205/Ala-206) in the mature protein; also called Cho-K/huADAM9; Cho-K/hu ADAM9.2
T2 sequence: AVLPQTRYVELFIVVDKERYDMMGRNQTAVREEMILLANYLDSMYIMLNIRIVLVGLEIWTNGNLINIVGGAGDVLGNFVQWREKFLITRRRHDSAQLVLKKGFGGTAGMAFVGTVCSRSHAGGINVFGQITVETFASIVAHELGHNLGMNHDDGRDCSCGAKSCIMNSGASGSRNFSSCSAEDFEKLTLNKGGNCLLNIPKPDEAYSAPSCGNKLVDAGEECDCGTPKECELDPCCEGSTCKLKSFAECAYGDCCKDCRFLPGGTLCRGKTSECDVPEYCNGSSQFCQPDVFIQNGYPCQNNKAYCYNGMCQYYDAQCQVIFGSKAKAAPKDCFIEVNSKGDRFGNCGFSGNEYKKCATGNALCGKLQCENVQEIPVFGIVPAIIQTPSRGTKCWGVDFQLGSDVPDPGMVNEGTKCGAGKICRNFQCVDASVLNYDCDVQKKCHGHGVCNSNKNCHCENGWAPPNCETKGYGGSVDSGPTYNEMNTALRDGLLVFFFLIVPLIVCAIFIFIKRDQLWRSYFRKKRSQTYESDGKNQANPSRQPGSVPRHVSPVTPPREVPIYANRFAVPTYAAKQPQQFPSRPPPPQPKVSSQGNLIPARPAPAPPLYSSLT

T3: cynomolgus monkey ADAM9 (cynoADAM9) on cells (cynomolgus monkey, UniProt Q13443 206-819 (human entry))
T3 construct: also called Cho-K/cynoADAM9 clone 2; Cho-K/cynoADAM9 clone #16
T3 chain: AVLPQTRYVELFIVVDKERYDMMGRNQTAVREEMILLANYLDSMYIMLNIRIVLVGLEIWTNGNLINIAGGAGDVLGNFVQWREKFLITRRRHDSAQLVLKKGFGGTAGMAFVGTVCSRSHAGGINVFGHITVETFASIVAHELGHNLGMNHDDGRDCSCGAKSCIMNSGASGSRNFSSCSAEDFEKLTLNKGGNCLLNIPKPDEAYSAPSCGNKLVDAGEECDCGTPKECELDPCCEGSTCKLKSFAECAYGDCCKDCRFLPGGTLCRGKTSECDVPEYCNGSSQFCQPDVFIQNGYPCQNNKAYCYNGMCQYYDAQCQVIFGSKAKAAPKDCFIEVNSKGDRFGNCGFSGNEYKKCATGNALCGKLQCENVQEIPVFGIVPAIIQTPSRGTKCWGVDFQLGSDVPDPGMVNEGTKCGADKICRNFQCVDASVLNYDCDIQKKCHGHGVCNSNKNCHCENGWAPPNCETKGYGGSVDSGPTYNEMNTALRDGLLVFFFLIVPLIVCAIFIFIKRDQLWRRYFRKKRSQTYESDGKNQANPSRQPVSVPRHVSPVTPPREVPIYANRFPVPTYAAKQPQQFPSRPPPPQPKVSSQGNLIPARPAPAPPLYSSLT


Columns and labels:
[1] = target: T1, His-tagged soluble human ADAM9 …; experiment: SPR (BIACORE), antibody captured, huADAM9-His in flow
[2] = target: T2, human ADAM9 (huADAM9) on cells; experiment: FACS, 300-19 cells expressing human ADAM9
[3] = target: T3, cynomolgus monkey ADAM9 (cynoADAM9) on …; experiment: FACS, EC50 on 300-19 cynoADAM9 cells over EC50 on 300-19 huADAM9 cells
[4] = target: T1, His-tagged soluble human ADAM9 …; experiment: ELISA: His-tagged soluble huADAM9 (0.5 µg/mL) captured by plate-coated anti-His antibody; serial dilutions of antibody about 0.2-500 ng/mL; abs @450nm
[5] = target: T3, cynomolgus monkey ADAM9 (cynoADAM9) on …; experiment: FACS, 300-19 cells expressing cynomolgus ADAM9
huFcRn [6] = target: T4, huFcRn (human, UniProt P55899 24-297; P61769 21-119, limits assumed); experiment: SPR at pH 6.0: 250 nM and 1000 nM huFcRn passed over captured antibody
T4 construct: source and construct are not described; also called human FcRn

huFcRn [7] = target: T4, huFcRn; experiment: SPR at pH 6.0: 25 nM and 100 nM antibody passed over immobilized FcRn (species of the FcRn not named in the legend); bivalent analyte
cyno FcRn = target: T5, cyno FcRn (cynomolgus monkey, UniProt Q8SPV9 24-297; Q8SPW0 21-119, limits assumed); experiment: FcRn binding, method not described
T5 construct: source and construct are not described

[8] = target: T3, cynomolgus monkey ADAM9 (cynoADAM9) on …; experiment: FACS, EC50 on 300-19 cynoADAM9 cells over EC50 on 300-19 huADAM9 cells; Unitless ratio of cyno EC50 to human EC50 by FACS on 300-19 cells
[9] = target: T3, cynomolgus monkey ADAM9 (cynoADAM9) on …; experiment: FACS, 300-19 cells expressing cynomolgus ADAM9; FACS, 300-19 cells expressing cynoADAM9, dilution series, 4° C.
[10] = target: T1, His-tagged soluble human ADAM9 …; experiment: SPR (BIACORE), antibody captured on anti-human Fc, shADAM9-His 6.25-100 nM, 1:1 Langmuir

T5 sequence (Q8SPV9 24-297 limits assumed, chain 1 of 2): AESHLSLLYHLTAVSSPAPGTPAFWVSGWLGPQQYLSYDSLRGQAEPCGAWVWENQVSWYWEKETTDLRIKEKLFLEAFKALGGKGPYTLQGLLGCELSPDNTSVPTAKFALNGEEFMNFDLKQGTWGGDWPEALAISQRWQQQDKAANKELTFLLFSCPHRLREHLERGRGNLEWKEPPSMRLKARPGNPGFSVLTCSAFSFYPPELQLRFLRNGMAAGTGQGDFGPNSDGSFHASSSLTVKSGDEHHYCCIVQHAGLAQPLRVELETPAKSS
T5 sequence (Q8SPW0 21-119 limits assumed, chain 2 of 2): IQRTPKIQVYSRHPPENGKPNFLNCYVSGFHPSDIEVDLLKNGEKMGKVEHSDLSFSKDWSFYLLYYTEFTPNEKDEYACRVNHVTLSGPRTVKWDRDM

Row | Kd [1] | koff [1] | kon [1] | EC50 [2] | cyno/human (ratio of EC50) [3] | EC50 (read off the curve) [4] | EC50 [5] | Kd (huFcRn [6]) | Kd (huFcRn [7]) | binding result (cyno FcRn) | cyno/human (ratio of EC50) [8] | EC50 [9] | Kd [10] | Binder
1 | 0.4 nM | 0.00023 s⁻¹ | 660000 M⁻¹ s⁻¹ | 1.49 nM | 3 | ~9 ng/mL | 4.1 nM | 3400 nM | – | – | – | – | – | hMAB-A (2I.2) (antibody, human IgG1, kappa, Kappa light chain, wild-type IgG1 heavy chain constant regions; also called MAB-A VH(2I); MAB-A VH(2I.2)) heavy: not shown light: DIVMTQSPDSLAVSLGERATISCKASQSVDYSGDSYMNWYQQKPGQPPKLLIYAASDLESGIPARFSGSGSGTDFTLTISSLEPEDFATYYCQQSHEDPFTFGQGTKLEIKRTVAAPSVFIFPPSDEQLKSGTASVVCLLNNFYPREAKVQWKVDNALQSGNSQESVTEQDSKDSTYSLSSTLTLSKADYEKHKVYACEVTHQGLSSPVTKSFNRGEC
2 | – | – | – | – | – | – | – | 730 nM | 7.2 nM | binds | – | – | – | hMAB-A(2I.2)-YTE (antibody, human IgG1, kappa, Last residue X is lysine or absent; also called hMAB-A(2I.2) with the YTE mutation (M252Y, S254T, T256E)) heavy: EVQLVESGGGLVKPGGSLRLSCAASGFTFSSYWMHWVRQAPGKGLEWVGEIIPIFGHTNYNEKFKSRFTISLDNSKNTLYLQMGSLRAEDTAVYYCARGGYYYYPRQGFLDYWGQGTTVTVSSASTKGPSVFPLAPSSKSTSGGTAALGCLVKDYFPEPVTVSWNSGALTSGVHTFPAVLQSSGLYSLSSVVTVPSSSLGTQTYICNVNHKPSNTKVDKRVEPKSCDKTHTCPPCPAPELLGGPSVFLFPPKPKDTLYITREPEVTCVVVDVSHEDPEVKFNWYVDGVEVHNAKTKPREEQYNSTYRVVSVLTVLHQDWLNGKEYKCKVSNKALPAPIEKTISKAKGQPREPQVYTLPPSREEMTKNQVSLTCLVKGFYPSDIAVEWESNGQPENNYKTTPPVLDSDGSFFLYSKLTVDKSRWQQGNVFSCSVMHEALHNHYTQKSLSLSPGK light: DIVMTQSPDSLAVSLGERATISCKASQSVDYSGDSYMNWYQQKPGQPPKLLIYAASDLESGIPARFSGSGSGTDFTLTISSLEPEDFATYYCQQSHEDPFTFGQGTKLEIKRTVAAPSVFIFPPSDEQLKSGTASVVCLLNNFYPREAKVQWKVDNALQSGNSQESVTEQDSKDSTYSLSSTLTLSKADYEKHKVYACEVTHQGLSSPVTKSFNRGEC
3 | 0.6 nM | 0.00055 s⁻¹ | 900000 M⁻¹ s⁻¹ | 0.69 nM | – | – | – | – | – | – | 47 | 32.7 nM | 1.4 nM | hMAB-A (2.2) (antibody, human IgG1, kappa, V domains shown, IgG1 kappa; also called huMAB-A(2.2); parental hMAB-A (2.2)) VH: EVQLVESGGGLVKPGGSLRLSCAASGFTFSSYWMHWVRQAPGKGLEWVGEIIPIFGHTNYNEKFKSRFTISLDNSKNTLYLQMGSLRAEDTAVYYCARGGYYYYGSRDYFDYWGQGTTVTVSS VL: DIVMTQSPDSLAVSLGERATISCKASQSVDYSGDSYMNWYQQKPGQPPKLLIYAASDLESGIPARFSGSGSGTDFTLTISSLEPEDFATYYCQQSHEDPFTFGQGTKLEIKR

Source: patent US20210388102A1 (IMMUNOGEN, published 2021)
